Percent of parent (% WT response) data for 5 substances are collected here from paper PMC8892012.

The experiment has as its target arrestin-3 fused to Renilla luciferase (UniProt P32121). In words: BRET arrestin-3 interaction assay. Particulars: maximal zaprinast-stimulated BRET; receptor-eYFP co-transfected with arrestin-3-Renilla luciferase; n = 3, ± SD; parent: est. 100; read off a plot. For orientation: In BRET a luciferase serves as donor, and the signal depends on an acceptor being close.
Chain of UniProt P32121 (P32121 whole entry, the tested form may be a part): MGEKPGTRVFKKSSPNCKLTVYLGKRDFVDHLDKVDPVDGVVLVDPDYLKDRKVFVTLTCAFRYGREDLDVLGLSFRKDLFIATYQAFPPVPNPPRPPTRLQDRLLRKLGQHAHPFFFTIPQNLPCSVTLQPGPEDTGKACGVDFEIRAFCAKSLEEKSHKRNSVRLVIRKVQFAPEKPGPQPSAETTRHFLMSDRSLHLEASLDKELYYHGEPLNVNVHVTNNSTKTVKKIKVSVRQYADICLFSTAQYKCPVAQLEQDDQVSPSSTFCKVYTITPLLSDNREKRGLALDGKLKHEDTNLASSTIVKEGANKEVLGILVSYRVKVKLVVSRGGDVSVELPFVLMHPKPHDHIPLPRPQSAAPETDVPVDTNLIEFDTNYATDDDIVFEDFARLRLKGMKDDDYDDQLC
On to rGPR35-eYFP S286A, for which the percent of parent (% WT response) came out at 125.

For “rGPR35-eYFP S286A; T290A; S291A; S292A; T293A; S297A; T300A; S302A; S304A; T306A”, the percent of parent (% WT response) is 7.

Regarding rGPR35-eYFP S297A; T300A, the percent of parent (% WT response) was determined as 10.

For the substance rGPR35-eYFP S302A; S304A; T306A, the percent of parent (% WT response) turned out to be 33.

On to rGPR35-eYFP T290A; S291A; S292A; T293A, for which the percent of parent (% WT response) turned out to be 83.
